B1: HP0377 (Helicobacter pylori thiol oxidoreductase), amino acids 25-187 (domain or fragment, Helicobacter pylori strain 26695, UniProt O25140 25-187, looked up)
chain: CKSNNKDKLDENLLSSGSQSSKELNDERDNIDKKSYAGLEDVFSDNKSISPNDKYMLLVFGRNGCSYCERFKKDLKNVKELRDYIKEHFSAYYVNISYSKEHDFKVGDKNNEKEIKMSTEELAQIYAVQSTPTIVLSDKTGKTIYELPGYMPSTQFLAVLEFI
notes: HP0377 (CcmG family thiol oxidoreductase), Helicobacter pylori 26695, amino acids 25-187 of the native HP0377; also called 25-187 variant of HP0377; C-terminal-truncated HP0377; source: E. coli, purified
B2: HP0377 (Helicobacter pylori thiol oxidoreductase), amino acids 33-221 (domain or fragment, Helicobacter pylori strain 26695, UniProt O25140 33-221, looked up)
chain: LDENLLSSGSQSSKELNDERDNIDKKSYAGLEDVFSDNKSISPNDKYMLLVFGRNGCSYCERFKKDLKNVKELRDYIKEHFSAYYVNISYSKEHDFKVGDKNNEKEIKMSTEELAQIYAVQSTPTIVLSDKTGKTIYELPGYMPSTQFLAVLEFIGDGKYQDTKDDEDLTKKLKAYIKYKTNLSKSKSN
notes: HP0377 (CcmG family thiol oxidoreductase), Helicobacter pylori 26695, amino acids 33-221 of the native HP0377; the variant previously analysed by Yoon et al. [16]; also called 33-221 variant of HP0377; N-terminal-shortened HP0377; source: E. coli, purified

How the values were obtained:
[1] = target: apocytochrome c (HP1227) (Helicobacter pylori) (UniProt O25825); assay: SEC; lysates of E. coli overexpressing HP0377 CSYA and HP1227 mixed, overnight at 37°C, Ni IMAC, then ENrich SEC70 in 20 mM Tris pH 8, 150 mM NaCl; fractions on SDS-PAGE with or without DTT; covalent (disulfide) complex
[2] = target: the molecule itself; assay: cross-linking; glutaraldehyde (0.001-0.1%) on purified truncated HP0377 at 2.5 mg/ml, SDS-PAGE

Molecule	stoichiometry N (HP0377 per apocytochrome c) [1]	stoichiometry N [2]
HP0377 with the CSYC motif changed to CSYA (C92A), amino acids 25-221, His6 fusion (from UniProt O25140 25-221) (enzyme)	2	–
B1	–	2
B2	–	2
